Laboratory results as given in the supplement of paper PMC10201428.
± gives the standard deviation of the averaged measurements.

Key:
[1] = system: VchCAST RNA-guided transposition machinery (E. coli BL21(DE3) host, lacZ target); test: relative integration efficiency (T-LR orientation) vs wild-type transposon end (log2 (normalized fold change)); transposon end mutated: left end; higher = more efficient transposition
Method: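 Pooled, barcoded VchCAST (Tn6677) mini-transposon donor libraries; each variable transposon-end sequence sits in a fixed pDonor mini-transposon context (10-bp barcode and cargo not included). Left- or right-end libraries were co-transformed with pEffector (TniQ-Cascade, TnsABC, lacZ crRNA, T7, 0.1 mM IPTG) into E. coli BL21(DE3) and grown 18 h at 37 C. T-LR and T-RL junction amplicons were sequenced; output/input barcode fold change was normalised to the mean of four wild-type barcodes and log2-transformed. Two biological replicates; zero-count/undetected variants carry floor values (-10 / -15), censored here. Barcode uncoupling by PCR recombination adds noise.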

[2] = system: VchCAST RNA-guided transposition machinery (E. coli BL21(DE3) host, lacZ target); test: relative integration efficiency (T-RL orientation) vs wild-type transposon end (log2 (normalized fold change)); transposon end mutated: left end; higher = more efficient transposition
How it was run: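 Barcode abundances in input plasmids and in genomic integration junctions were obtained by PCR amplification and Illumina sequencing. These came from E. coli BL21(DE3) co-transformed with a T7-driven effector plasmid and a pUC57 donor carrying 1549 left-end or 1849 right-end transposon variants, then plated with 0.1 mM IPTG at 37°C for 18 h. Relative integration efficiency is the output/input fold change, normalised to reference barcodes and log-transformed.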

Sequence	relative integration efficiency (log2) [1]	relative integration efficiency (log2) [2]
AATGTTGTTGCAACCATAAAGTGATATTTAATAATTATTTATAATCAGCAACTTAACCACAAAACAACCATATATTGATATCTCACAAAACAACCATAAGTTGATATTTTTGTGAATCGAGTATTTCAGCAAAACTACTGCAGTAAGAAAGT	-1.44 ± 0.11	-0.203 ± 0.26
AATGTTGTTGATGCAACCATAAAGTGATATTTAATAATTATTTATAATCAGCAACTTAACCACAAAACAACCATAAAATGATAATTAACAAAAGTTGGTATTCAACTATAAAATGTGAATCGAGTATTTCAGCAAAACTACTGCAGTAAGAA	-1.31 ± 1.8	-2.67 ± 1.1
AATGTTGTTGATGCAACCATAAAGTGATATTTAACAAGACTAACATTATTAGTAACTGAGAACTATGCAACCATATATTGATATCTCACAAAACAACCATAAGTTGATATTTTTGTGAATCGAGTATTTCAGCAAAACTACTGCAGTAAGAA	-2.85 ± 0.45	-2.4 ± 0.87
AATGTTGTTGATGCAACCATAAAGTGATATTTACCGACTGTCTGCCATCCGCCGCTGAACCGCAGCCCAACCATATATTGATATCTCACAAAACAACCATAAGTTGATATTTTTGTGAATCGAGTATTTCAGCAAAACTACTGCAGTAAGAA	-3.04 ± 1.6	-2.98 ± 0.99
AATGTTGTTGATGCAACCATAAAGTGATATTTACGAATCAATTAAAATCATAGGCTTAATCGAAAAACAACCATATATTGATATCTCATAAAACAACCATAAGTTGATATTTTGGTGAAAAGGATATTCCAACCTTCATAGTTTAGTAAGAA	0.612 ± 0.84	0.639 ± 0.032
AATGTTGTTGATGCAACCATAAAGTGATATTTAATAATTATTTATAATCAGCAACTTAACCAACCCCACCAACGCGCGGTCGCGAGACACCCCACCAACGCCTGGTCGCGGGGGTGTCCGATCTGATTTCAGCAAAACTACTGCAGTAAGAA	-4.2 ± 0.92	-5.95 ± 1.6
AATGTTGTTGATGCAACCATAACTGTCGCGGGCCGCCGGCGGGCGCCGACTACCAGGCCAACACCCCACCAACGCGCGGTCGCGAGACACCCCACCAACGCCTGGTCGCGGGGGTGTCCGATCTGATTTCAGCAAAACTACTGCAGTAAGAA	< -10	< -10
AATGTTGTTGATGCAACCATAAAGTGATCGGGCCGCCGGCGGGCGCCGACTACCAGGCCAACACCCCACCAACGCGCGGTCGCGAGACACCCCACCAACGCCTGGTCGCGGGGGTGTCCGATCTGATTTCAGCAAAACTACTGCAGTAAGAA	-7.44 ± 0.81	-8.26 ± 1.7
AATGTTGTTGATGCAACCAATTTCTGATATTTAATAATTATTTATAATCAGCAACTTAACCACAAAACAACCAATATATGATATCTCACAAAACAACCAATTCATGATATTTTTGTGAATCGAGTATTTCAGCAAAACTACTGCAGTAAGAA	-1.57 ± 0.77	-2.5 ± 1.1
AATGTTGTTGATGCAACCATAAAGTGATATTTAATAATTATTTATAATCCTACCAGGCCAACACCCCACCAACGCGCGGTCGCGAGACACCCCACCAACGCCTGGTCGCGGGGGTGTCCGATCTGATTTCAGCAAAACTACTGCAGTAAGAA	-5.08 ± 3.7	-6.45 ± 1.8
AATGTTGTTGATGCAACCATAAAGTGATATTTAAAATGTGAGCGAGTAACAACCCTTAACCACAAAACAACCATATATTGATATCTCACAAAACAACCATAAGTTGATATTTTTGTGAATCGAGTATTTCAGCAAAACTACTGCAGTAAGAA	-0.988 ± 0.33	-2.19 ± 0.48
AATGTTGTTGATGCAACCATAAAGTGATATTTAATAAGGCGGGCGCCGACTACCAGGCCAACACCCCACCAACGCGCGGTCGCGAGACACCCCACCAACGCCTGGTCGCGGGGGTGTCCGATCTGATTTCAGCAAAACTACTGCAGTAAGAA	-3.73 ± 1.5	-7.05 ± 1.6
AATGTTGTTGATGCAACCATAAAGTGATATTTAATAATTATTTATAATCAGCAACTTAACCACAAAACAACCATATATTGATATCTCACAACCACCAACGCCTGGTCGCGGGGGTGTCCGATCTGATTTCAGCAAAACTACTGCAGTAAGAA	-0.813 ± 1.4	-2.63 ± 0.74
AATGTTGTTGATGCAACCATAAAGTGATATTTAATAATTATTTATAATCAGCAACTTAACCACAAAAACCAACGCGCGGTCGCGAGACACCCCACCAACGCCTGGTCGCGGGGGTGTCCGATCTGATTTCAGCAAAACTACTGCAGTAAGAA	-4.28 ± 1	-7.55 ± 2
AATGTTGTTGATGCAACCATAAAGTGATATTTAATAATTATTTATAATCAGCAACTTAACCACAAAACAACCATATATTGATATCTCAACCCCACCAACGCCTGGTCGCGGGGGTGTCCGATCTGATTTCAGCAAAACTACTGCAGTAAGAA	-0.776 ± 1.1	-2.58 ± 0.89
AATGTTGTTGATGCAACCATAAAGTGATATTTACTTAAGCGAGTCTGTCCTTTCTGACTGTCGATCCCAACCATATATTGATATCTCACAAAACAACCATAAGTTGATATTTTTGTGAATCGAGTATTTCAGCAAAACTACTGCAGTAAGAA	-3.45 ± 1.6	-3.4 ± 1.1
AATGTTGTTGATGCAACCATAAAGTGATATTTAATAATTATTTCAACCATATATTGATATCTCACAAAACAACCATAAGTTGATATTTTTGTGAATCGAGTATTTCAGCAAAACTACTGCAGTAAGAAAGTTACTTCGTGGTATGGGAGGAT	-3.12 ± 1.5	-6.94 ± 1.9
AATGTTGTTGATGCAACCATAAAGTGATATTTAATAATTATTTATAATCAGCAACTTAACCACAAAACACCCATAAATTGATAATTAACAAAAGTTGGTATTCAACTATAAAATGTGAATCGAGTATTTCAGCAAAACTACTGCAGTAAGAA	-1.11 ± 0.65	-2.72 ± 0.87
AATGTTGTTGATGCAACCATAAAGTGATATTTAATAATTATTTATAATCAGCAACTTAACCACAAAACAACCATATATTGAGCGAGACACCCCACCAACGCCTGGTCGCGGGGGTGTCCGATCTGATTTCAGCAAAACTACTGCAGTAAGAA	-2.37 ± 1.7	-4.19 ± 1.3
AATGTTGTTGATGCAACCATAAAGTGATATTTATACCGTTCGTATAATGTATGCTATACCAAGTTATCAACCATATATTGATATCTCACAAAACAACCATAAGTTGATATTTTTGTGAATCGAGTATTTCAGCAAAACTACTGCAGTAAGAA	-3.21 ± 0.88	-4.32 ± 1.2
AATGTTGTTGATGCAACCATAAAGTGATATTTACAACCATATATTGATATCTCACAAAACAACCATAAGTTGATATTTTTGTGAATCGAGTATTTCAGCAAAACTACTGCAGTAAGAAAGTTACTTCGTGGTATGGGAGGATCAAGGAGCCA	0.662 ± 0.89	-2.61 ± 1.1
AATGTTGTTGATGCAACCATAAAGTGATATTTACGCACTCCGTAGCCATCTGGGGCACCGGACGCTCCAACCATATATTGATATCTCACAAAACAACCATAAGTTGATATTTTTGTGAATCGAGTATTTCAGCAAAACTACTGCAGTAAGAA	-3.42 ± 0.88	-2.64 ± 0.79
AATGTTGTTGATGCAACCATAAAGTGATATTTAATAATTATTTATAATCAGCAACTTAACCACAAAATGTGAATCGAGTATTCAACCATATATTGATATCTCACAAAACAACCATAAGTTGATATTTTTCAGCAAAACTACTGCAGTAAGAA	-2.89 ± 0.26	-4 ± 1.4
AATGTTGTTGATGCAACCATAAAGTGATATTTAATAATTATTTATAATCAGCAACTTAACCACAAAACAACCATATATTGATATCTCACAAAACAACCATAAGTTGATATTTGTGAATCGAGTATTTCAGCAAAACTACTGCAGTAAGAAAG	0.0663 ± 0.15	-0.116 ± 0.072
AATGTTGTTGATACAACCATAAAGTGATATTTACAACCATATATTGATATCTCTCACAACCATAAGTTGATATTTTTGTGAATCGAGTATTTCAGCAAAACTACTGCAGTAAGAAAGTTACTTCGTGGTATGGGAGGATCAAGGAGCCAATA	2.35 ± 0.84	-3.51 ± 1
AATGTTGTTGATGCAACCATAAAGTGATATTTAATAATTATTTATAATCAGCAACTTAACCACAAAACAACCATATATTGATATCACAAAACAACCATAAGTTGATATTTTTGTGAATCGAGTATTTCAGCAAAACTACTGCAGTAAGAAAG	-0.718 ± 0.95	-2.64 ± 0.93
AATGTTGTTGATGCAACCATAAAATGATAATTAATAATTATTTATAATCAGCAACTTAACCACAAAACAACCATAAAATGATAATTAACAAAAGTTGGTATTCAACTATAAAATGTGAATCGAGTATTTCAGCAAAACTACTGCAGTAAGAA	-1.23 ± 2.7	-2.57 ± 1.3
AATGTTGTTGATGCAACCATAAAGTGATATTTAATAATTATTTATAATCAGCAACTTAACCACAAAACAACCATATATTGATATCTCACAAAACAACCCGCCTGGTCGCGGGGGTGTCCGATCTGATTTCAGCAAAACTACTGCAGTAAGAA	-1.63 ± 2.3	-2.27 ± 0.81
AATGTTGTTGATGCAACCATAAAGTGATATTTAATAATTATTTATAATCAACCATATATTGATATCTCCAGCAACTTAACCACAAAAACAAAACAACCATAAGTTGATATTTTTGTGAATCGAGTATTTCAGCAAAACTACTGCAGTAAGAA	-2.65 ± 0.85	-3 ± 0.78
AATGTTGTTGATGCAACCATAAGTTGATATTTTATAATTATTTATAATCAGCAACTTAACCACAAAACACCCATAAATTGATATTGCACAAAAGTTGGTATTCAACTATAAAATGTGAATCGAGTATTTCAGCAAAACTACTGCAGTAAGAA	-1.01 ± 1.3	-3.48 ± 1.3
